Assay results as given in publication PMC6321638 (2018).

Biological target: ALG-2 delta3-23 (Homo sapiens, UniProt O75340, Ca2+)
Assay: ITC

Chain of ALG-2 delta3-23 (O75340 3-23, stated change not applied): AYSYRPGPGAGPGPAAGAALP

B1: SOUL (protein)
chain: AEPLQPDPGAAEDAAAQAVETPGWKAPEDAGPQPGSYEIRHYGPAKWVSTSVESMDWDSAIQTGFTKLNSYIQGKNEKEMKIKMTAPVTSYVEPGSGPFSESTITISLYIPSEQQFDPPRPLESDVFIEDRAEMTVFVRSFDGFSSAQKNQEQLLTLASILREDGKVFDEKVYYTAGYNSPVKLLNRNNEVWLIQKNEPTKENE
Kd: 32.4 nM
